Assay [1] deals with T1, HMG1 B Box peptide amino acids 150-183.
T1 peptide: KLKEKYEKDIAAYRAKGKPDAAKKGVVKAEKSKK
In words: ELISA, HMG1 B Box peptide 150-183 coated at 10 ug/ml, antibody titrated, OD 450. The procedure: (§1) The plate was then blocked with 4% milk powder dissolved in PBS at 37° C. for 1 hour. The blocking solution was removed and replaced with human anti-HMG1 antibodies at various concentrations (see FIGS. 5A-B). […] HRP activity was detected with Sureblue HRP substrate (KPL). Plates were read at 450 nm using a Kinetic Microplate Reader (Molecular Devices). […] After washing and blocking with 1% BSA in PBS, the biotinylated peptides were individually added into the avidin coated wells and incubated for 30 min at room temperature. The serial diluted antibody G4, S16 and S6 at the initial concentration at 10 μg/ml were then transferred into the wells followed by adding mouse anti human IgG-HRP conjugate (Pierce). Detection was accomplished by adding 50 μl of tetramethylbenzidine (TMB) substrate (KPL) and the absorbance was read at 450 nm.
(In general: An ELISA detects its analyte on a solid surface through an enzyme-linked reagent.)

Assay [2] deals with T2, recombinant HMG1 produced in E. coli as a calmodulin binding protein (CBP) fusion (human). In words: cell-based or functional assay.
For assay [3], the target named is T2, recombinant HMG1 produced in E. coli as …. In words: ELISA, coated RAGE-Fc, rHMG1 preincubated with antibody. The method, then: HMG1 binding to RAGE-Ig by ELISA: 50 μl/well of RAGE-Fc fusion protein at 5 μg/ml in PBS was added to each well of an ELISA plate and incubated overnight at 4° C. The plate was then blocked with 200 μl of 5% milk at 37° C. for 1 hr and washed 3× with PBS/Tween. 50 μl/well of diluted HMGB1 solution. For dose curves, HMGB1 concentrations started at 4 ug/ml in PBS. For antibody blocking the HMGB1 was preincubated in another plate with human anti-HMG1 antibodies or buffer, then transferred to the RAGE-coated plate. The plates were then incubated at room temperature for 2 hours and washed 3×. To detect any HMG1 bound to the immobilized RAGE-Fc a mixture of biotinylated mouse anti-HMG1 mAbs (10D4, 4H11, 3E10 and 5C12) each at 1 ug/ml, total Ab: 4 ug/ml, were added to each well and the plate was incubated for 1 hour at room temperature. The plate was then washed and Strepavidin-HPR was added to each well and incubated 15 min. The plate was then washed 3× and blotted dry. 100 μl of TMB developing agent was added and the plate read at 650 nm. Values were calculated as percent of inhibition with HMG1 alone equal to 0% inhibition. The data in FIG. 9 and summarized in Table 1 represent the average of two separate experiments.

For assay [4], the target named is T3, HMG1 B Box peptide amino acids 91-169.
T3 construct: also called HMG1 peptide 91-169
T3 peptide: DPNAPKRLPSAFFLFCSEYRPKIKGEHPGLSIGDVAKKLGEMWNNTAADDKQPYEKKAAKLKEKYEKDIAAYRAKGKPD
In words: ELISA, HMG1 B Box peptide 91-169 coated at 10 ug/ml, antibody titrated, OD 450. The method, then: as §1

Assay [5] deals with T4, HMG1 purified from calf (bovine) thymus (bovine, UniProt P10103 2-215).
T4 construct: also called Calf thymus HMGB1; thymus HMG1
T4 sequence (looked up): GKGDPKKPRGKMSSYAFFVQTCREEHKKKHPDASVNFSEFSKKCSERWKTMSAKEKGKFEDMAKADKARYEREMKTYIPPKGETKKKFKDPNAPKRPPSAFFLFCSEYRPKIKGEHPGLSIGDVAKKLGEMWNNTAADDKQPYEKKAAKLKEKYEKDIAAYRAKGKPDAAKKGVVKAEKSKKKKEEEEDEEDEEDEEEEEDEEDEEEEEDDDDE
Description: direct ELISA, calf thymus HMGB1 coated at 5 ug/mL, antibody at 10 ug/mL, anti-human kappa/lambda-HRP, OD 490. The procedure: (§2) Binding to HMG1 vs. HMG2: Ultra high-binding ELISA plates (ThermoLab systems, #3855) were coated with either 5 ug/mL of Calf thymus HMGB1 or HMBG2 diluted in 10 mM Phosphate buffered saline (PBS), pH 7.2 and incubate overnight at 4 degrees. The plates were washed twice with Ca and Mg free PBS and 100 microliters of anti-HMGB1 antibody diluted in 10 mM PBS, pH 7.2+1% bovine serum albumin (BSA) to a final concentration of 10 ug/mL was added to each well and the plates were incubated 1 hour at room temperature. The wells were washed three times with 100 μl of PBS, pH 7.2. HRP labeled goat-anti-human IgG Kappa-chain (KPL, #14-10-10) and goat-anti-human IgG Lambda-chain (KPL, #14-10-11) were diluted in 10 mM PBS+1% BSA 1:1000 and 100 μl were added to each well and incubated for 1 hour at room temperature. The wells were then washed three times with 100 μl of PBS, pH 7.2. OPD substrate (Pierce chemical company, #34006) was prepared following the manufacturers instructions and 100 μl of prepared substrate was added to each well and the plates incubated at room temperature in the dark for 20-30 minutes. The reaction was stopped with the addition of 100 μl of 2M H₂SO₄, and the plates read on a plate reader at a wavelength of 490 nm.

Assay [6] concerns the target T5, HMG2 coated on ELISA plates (Bos taurus (Bovine), UniProt P40673 2-209).
T5 construct: also called HMGB2; HMBG2
T5 sequence: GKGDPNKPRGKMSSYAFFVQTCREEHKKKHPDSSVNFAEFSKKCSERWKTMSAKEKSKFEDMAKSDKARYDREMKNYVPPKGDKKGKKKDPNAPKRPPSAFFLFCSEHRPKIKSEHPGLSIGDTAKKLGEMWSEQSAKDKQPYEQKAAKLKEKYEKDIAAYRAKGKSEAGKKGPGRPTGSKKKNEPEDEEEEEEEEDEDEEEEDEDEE
In words: direct ELISA, HMGB2 coated at 5 ug/mL, OD 490. The procedure:
as §2

In assay [7] the target is T2, recombinant HMG1 produced in E. coli as …. In words: BIAcore 3000, mAb amine-coupled to CM5, HMG1 injected, steady-state model. The method, then:
HMG1 Binding Affinity via BIAcore Analysis: All experiments were performed on a BIAcore 3000 instrument (BIAcore, Inc., Piscataway, N.J.). Briefly, each mAb was immobilized to a CM5 sensor chip using a standard amine coupling chemistry. Separately a reference (control) flow cell was also prepared. Two-fold, serial dilutions of HMG1 in instrument buffer were sequentially injected at a slow flow rate over the individual mAb and reference flow-cell surfaces. Following the binding and dissociation of HMG1, the mAbs surfaces were regenerated with a brief pulse of 1M NaCl-50 mM NaOH. At the end of each experiment, the binding curves were evaluated using a steady-state model available through the BIAevaluation software supplied by BIAcore, Inc. (Piscataway, N.J.).
(Surface plasmon resonance follows binding to a sensor surface in real time, without labels.)

Assay [8] shares this target. In words: sandwich ELISA: antibody titrated and captured on anti-human IgG Fc, soluble recombinant HMG1 at 2 ug/ml, mouse anti-HMGB1 and anti-mouse IgG-HRP, OD 450. The method, then:
Sandwich ELISA (soluble HMG1): Immunoplates (EIA/RIA plate, High binding, Costar) were coated with anti human IgG Fc at 10 μg/ml in PBS (pH 7.2) and incubated at 4° C. overnight. The coating reagent was removed and the plates were rinsed briefly with PBS. The plates were then blocked with 4% milk for 1 hour at 37° C. and rinsed with PBS. The anti-HMG1 antibodies were diluted in 4% milk. For serial dilutions, the antibodies were used at a starting concentration of 20 μg/ml. The diluted anti-HMG1 antibodies were then added into plate and incubated for 1 hr at 37° C. The plate was then washed 10 times with PBST (PBS/0.1% tween 20) and incubate with antigen (HMGB1, 2 μg/ml; or 0.7 μg/ml for native HMGB1) in 4% milk and incubated at 37° C. for 1 h. The plate was then wash 10 times and incubated with mouse anti-HMGB1, 1 μg/ml in 4% milk at 37° C. for 1 h. The plate was washed 10 times and incubated with anti-mouse IgG-HRP at 1:1000 at 37° C. for 1 h. The plate was then washed and developed. HRP activity was detected with Sureblue HRP substrate (KPL). Plates were read at 450 nm using a Kinetic Microplate Reader (Molecular Devices).

Assay [9] has as its target T6, activated HMG1 from LPS stimulated THP-1 cells (human, UniProt P09429 1-215).
T6 sequence (looked up): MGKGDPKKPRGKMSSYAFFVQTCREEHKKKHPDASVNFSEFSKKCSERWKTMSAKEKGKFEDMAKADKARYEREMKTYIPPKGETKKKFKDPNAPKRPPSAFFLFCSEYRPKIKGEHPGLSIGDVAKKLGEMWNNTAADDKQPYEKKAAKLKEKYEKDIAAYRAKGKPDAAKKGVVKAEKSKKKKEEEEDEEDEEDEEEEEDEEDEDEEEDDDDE
In words: cell-based or functional assay.

Where only a bound is given, the exact number is not on record here.

B1: human anti-HMG1 antibody S10 (antibody, IgG1, V domains shown)
VH: EVQLLESGGGLVQPGGSLRLSCAASGFTFSWYDMWWVRQAPGKGLEWVSWIVPSGGITAYADSVKGRFTISRDNSKNTLYLQMNSLRAEDTATYYCARGNYGPSPFDYWGQGTLVTVSS
VL: DIQMTQSPGTLSLSPGERATLSCRATQSVRKNFLAWYQQKPGQAPRLLIYDASSRATGIPDRFSGSGSGTDFTLTISRLEPEDFAVYYCQQYGNSPIIFGQGTRLEIK
notes: full length IgG1 made from a human Fab phage clone
Usually Kd stands for a measure of binding affinity in units of concentration. Turning to B1, the binding result in assay [1] is “no binding (tested: 10 ug/ml (log 1.0))”; in assay [4], “no binding (tested: 10 ug/ml (log 1.0))”; in assay [5], “binds”; in assay [6] it was “no binding (tested: 10 ug/mL (single concentration))”. The “IC50 IL-1β” value in assay [2] worked out at 2.59 mg/L. Further, in assay [2], the “IC50 IL-6” value came out at 0.000324 µM. The “IC50 IL-12” value in assay [2] came to 1.13 mg/L. The “IC50 TNF-α” value in assay [2] came out at 0.875 mg/L. Further, in assay [3], the “percent inhibition of HMG1 binding to RAGE” value was at least 35%. Further, the Kd in assay [7] was determined as 0.054 µM.

B2: human anti-HMG1 antibody S2 (antibody, V domains shown)
VH: EVQLLESGGGLVQPGGSLRLSCAASGFTFSGYMMVWVRQAPGKGLEWVSRISPSGGQTGYADSVKGRFTISRDNSKNTLYLQMNSLRAEDTAVYYCAREEGGSYGAFDIWGQGTMVTVSS
VL: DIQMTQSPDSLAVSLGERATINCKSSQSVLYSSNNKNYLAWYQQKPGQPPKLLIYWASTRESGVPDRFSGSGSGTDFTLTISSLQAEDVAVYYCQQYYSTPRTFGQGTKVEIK
notes: full length IgG1 made from a human Fab phage clone; also called ATCC PTA-6142
For orientation: EC50 (read off the curve) means the concentration needed to bring the measured effect to its halfway point. In the case of B2, the binding result was “no binding (tested: 10 ug/ml (log 1.0))” in [1], “no binding (tested: 10 ug/ml (log 1.0))” in [4], “binds” in assay [5] and “no binding (tested: 10 ug/mL (single concentration))” in [6]. The “IC50 IL-1β” value in assay [2] stood at 0.22 mg/L. Also, the “IC50 IL-6” value in [2] came out at 0.000163 µM. In [2], the “IC50 TNF-α” value was 0.0642 mg/L. In assay [3], the “percent inhibition of HMG1 binding to RAGE” value is at least 35%. For the same molecule, the “EC50 (read off the curve)” value in assay [8] is about 0.08 mg/L. Moreover, the Kd in assay [7] stood at 0.036 µM.

B3: human anti-HMG1 antibody S17 (antibody, IgG1, V domains shown)
VH: EVQLLESGGGLVQPGGSLRLSCAASGFTFSYYDMHWVRQAPGKGLEWVSRISPSGGYTWYADSVKGRFTISRDNSKNTLYLQMNSLRAEDTAVYYCTRGRYTSGWHEYFDPWGQGTLVTVSS
VL: DIQMTQSPSSLSASVGDRVTITCRASQSIGTYLNWYQQKPGTAPKVLIYAASSLQSGVPSRFSGSGSGTDFTLTISSLQPEDFSTYYCQQSYNTPRTFGQGTKLEIK
notes: as for B1
On to B3, for which the binding result in [1] is reported as “no binding (tested: 10 ug/ml (log 1.0))”; in assay [4] it was “no binding (tested: 10 ug/ml (log 1.0))”; in assay [5] it was “binds”; in [6], “no binding (tested: 10 ug/mL (single concentration))”. Also, in assay [9], the “IC50 nm IL-6 Native HMGB” value worked out at 0.0114 µM. The “IC50 IL-1β” value in assay [2] came to 0.0809 mg/L. Also, in [2], the “IC50 IL-6” value was 0.000162 µM. The “IC50 NO” value in assay [2] turned out to be 41.7 mg/L. For the same molecule, the Kd in assay [7] worked out at 0.331 µM.

For the origin of these results see patent US20110287023A1 (AstraZeneca / MedImmune, published 2011).
